{"source": "patent US20180009892A1", "binders": {"B1": {"name": "Wnt5a, P41221 62-380 (ligand, UniProt P41221 62-380, looked up)", "chain": "IIGAQPLCSQLAGLSQGQKKLCHLYQDHMQYIGEGAKTGIKECQYQFRHRRWNCSTVDNTSVFGRVMQIGSRETAFTYAVSAAGVVNAMSRACREGELSTCGCSRAARPKDLPRDWLWGGCGDNIDYGYRFAKEFVDARERERIHAKGSYESARILMNLHNNEAGRRTVYNLADVACKCHGVSGSCSLKTCWLQLADFRKVGDALKEKYDSAAAMRLNSRGKLVQVNSRFNSPTTQDLVYIDPSPDYCVRNESTGSLGTQGRLCNKTSEGMDGCELMCCGRGYDQFKTVQTERCHCKFHWCCYVKCKKCTEIVDQFVCK"}}, "key": {"[1]": {"target": "T1, human ROR1 extracellular domain (ECD) protein (human), Q01973", "T1 sequence (Q01973 30-406 limits assumed)": "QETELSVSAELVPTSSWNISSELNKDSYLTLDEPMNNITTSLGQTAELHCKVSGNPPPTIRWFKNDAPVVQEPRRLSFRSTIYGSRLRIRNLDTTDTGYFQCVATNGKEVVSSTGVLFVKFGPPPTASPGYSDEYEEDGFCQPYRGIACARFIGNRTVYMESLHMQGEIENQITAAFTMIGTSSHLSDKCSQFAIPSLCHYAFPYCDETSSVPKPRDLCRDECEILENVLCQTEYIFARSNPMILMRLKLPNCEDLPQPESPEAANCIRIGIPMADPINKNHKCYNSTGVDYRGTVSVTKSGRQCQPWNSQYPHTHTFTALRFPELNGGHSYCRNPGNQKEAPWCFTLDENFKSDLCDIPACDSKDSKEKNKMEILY", "experiment": "ForteBio Octet, Wnt5a binding to ROR1 in the presence of antibody 601-3-12"}, "[2]": {"target": "T1, human ROR1 extracellular domain (ECD) …", "experiment": "ForteBio Octet, Wnt5a binding to ROR1 in the presence of antibody 601-3-2"}, "[3]": {"target": "T1, human ROR1 extracellular domain (ECD) …", "experiment": "ForteBio Octet, Wnt5a binding to ROR1 in the presence of the control mAb"}, "[4]": {"target": "T1, human ROR1 extracellular domain (ECD) …", "experiment": "ForteBio Octet, Wnt5a binding to ROR1 in the presence of antibody 601-3-16"}}, "data": [{"binder": "B1", "values": [{"measurement": "Pesudo ka", "setting": "[1]", "result": 5300, "unit": "M⁻¹ s⁻¹"}, {"measurement": "Pesudo ka", "setting": "[2]", "result": 13000, "unit": "M⁻¹ s⁻¹"}, {"measurement": "Pesudo ka", "setting": "[3]", "result": 21000, "unit": "M⁻¹ s⁻¹"}, {"measurement": "Pesudo ka", "setting": "[4]", "result": 6700, "unit": "M⁻¹ s⁻¹"}]}]}
